One block for each binder: values may come before it.
B4: BTN2A1 ectodomain homodimer (disulfide-linked, with C-terminal Cys247 and leucine zippers) (ligand, human, UniProt Q7KYR7 29-248, looked up)
chain: QFIVVGPTDPILATVGENTTLRCHLSPEKNAEDMEVRWFRSQFSPAVFVYKGGRERTEEQMEEYRGRTTFVSKDISRGSVALVIHNITAQENGTYRCYFQEGRSYDEAILHLVVAGLGSKPLISMRGHEDGGIRLECISRGWYPKPLTVWRDPYGGVAPALKEVSMPDADGLFMVTTAVIIRDKSVRNMSCSINNTLLGQKKESVIFIPESFMPSVSPCA
notes: extracellular domain; One copy carries the acidic, the other the basic zipper; also called immobilised BTN2A1 ectodomain homodimer; BTN2A1 homodimer; not shown: acidic or basic leucine zipper and C-terminal AviTag/His tags
B12: soluble BTN3A1 ectodomain (IgV-IgC), homodimer (ligand)
chain: not shown
notes: extracellular domain; Soluble analyte or immobilised ligand in SPR; streptavidin-PE tetramer in staining; also called BTN3A1 ectodomain homodimer; BTN3A1 tetramer; not shown: C-terminal biotin ligase (AviTag) and His tags

Assays:
[1] = target: B12; assay: SPR, soluble BTN3A1 IgV domain over immobilised BTN3A1 homodimer
[2] = target: B4; assay: SPR, soluble BTN3A1 IgV domain over immobilised BTN2A1 homodimer, equilibrium analysis, ± SEM
[3] = target: B4; assay: SPR, soluble BTN2A1 ectodomain over immobilised BTN2A1 ectodomain homodimer
[4] = target: B12; assay: SPR, soluble BTN2A1 ectodomain over immobilised BTN3A1 homodimer, equilibrium analysis
[5] = target: B12; assay: SPR, soluble BTN2A1 ectodomain over immobilised BTN3A1 homodimer, equilibrium analysis, ± SEM
[6] = target: T1, 9C2 Vγ5Vδ1+ γδTCR on transfected HEK293T cells; assay: flow cytometry, tetramer-PE versus CD3-APC on HEK293T cells co-transfected with CD3 and 9C2 TCR; SAv ctl 26
T1 construct: Control TCR, co-transfected with CD3; also called 9C2 TCR (Control)

[7] = target: B12; assay: SPR, soluble BTN3A1 ectodomain over immobilised BTN2A1 homodimer, equilibrium analysis, ± SEM
[8] = target: T2, BTN2A1 on transfected cells (human, UniProt Q7KYR7 29-527); assay: FRET between anti-BTN2A1 (259) and anti-BTN3A (103.2) mAbs on NIH-3T3 cells co-expressing BTN2A1 WT and the BTN3A1 mutant (association in cis)
T2 construct: Expressed from pMIG in NIH-3T3 or HEK293T cells; also called BTN2A1+ cells; BTN2A1 WT
T2 sequence: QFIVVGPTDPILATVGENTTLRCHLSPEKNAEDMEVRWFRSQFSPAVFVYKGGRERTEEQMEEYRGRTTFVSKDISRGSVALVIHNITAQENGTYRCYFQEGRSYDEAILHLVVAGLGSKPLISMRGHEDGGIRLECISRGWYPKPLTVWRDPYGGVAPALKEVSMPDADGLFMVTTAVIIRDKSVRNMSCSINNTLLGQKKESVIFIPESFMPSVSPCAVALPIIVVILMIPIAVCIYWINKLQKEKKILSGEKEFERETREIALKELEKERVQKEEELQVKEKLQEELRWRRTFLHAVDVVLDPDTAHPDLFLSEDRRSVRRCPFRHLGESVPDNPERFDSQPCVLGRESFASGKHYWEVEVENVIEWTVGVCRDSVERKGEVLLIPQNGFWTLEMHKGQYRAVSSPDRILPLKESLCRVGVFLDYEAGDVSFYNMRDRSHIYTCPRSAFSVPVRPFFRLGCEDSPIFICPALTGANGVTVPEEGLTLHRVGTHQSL

B2: soluble BTN2A1 ectodomain lacking Cys247 (monomeric) (ligand, human, UniProt Q7KYR7 29-246, looked up)
chain: QFIVVGPTDPILATVGENTTLRCHLSPEKNAEDMEVRWFRSQFSPAVFVYKGGRERTEEQMEEYRGRTTFVSKDISRGSVALVIHNITAQENGTYRCYFQEGRSYDEAILHLVVAGLGSKPLISMRGHEDGGIRLECISRGWYPKPLTVWRDPYGGVAPALKEVSMPDADGLFMVTTAVIIRDKSVRNMSCSINNTLLGQKKESVIFIPESFMPSVSP
notes: extracellular domain; also called soluble monomeric BTN2A1 ectodomain; full-length BTN2A1 ectodomain; not shown: C-terminal biotin ligase (AviTag) and His tags
- binding result [3]: no binding
- Kd [4]: ~1800 µM
- Kd [5]: 1800 µM

B3: BTN2A1 ectodomain tetramer (streptavidin-PE) (ligand, human, UniProt Q7KYR7 29-248, looked up)
chain: QFIVVGPTDPILATVGENTTLRCHLSPEKNAEDMEVRWFRSQFSPAVFVYKGGRERTEEQMEEYRGRTTFVSKDISRGSVALVIHNITAQENGTYRCYFQEGRSYDEAILHLVVAGLGSKPLISMRGHEDGGIRLECISRGWYPKPLTVWRDPYGGVAPALKEVSMPDADGLFMVTTAVIIRDKSVRNMSCSINNTLLGQKKESVIFIPESFMPSVSPCA
notes: extracellular domain; biotinylated at a C-terminal AviTag; also called BTN2A1 tetramer
- median fluorescence of PE [6]: 25

Binder: B4
- Kd [7]: 500 µM

B5: BTN2A1-BTN3A1-zipper ectodomain complex (wild type) (other)
chain 1: QFIVVGPTDPILATVGENTTLRCHLSPEKNAEDMEVRWFRSQFSPAVFVYKGGRERTEEQMEEYRGRTTFVSKDISRGSVALVIHNITAQENGTYRCYFQEGRSYDEAILHLVVAGLGSKPLISMRGHEDGGIRLECISRGWYPKPLTVWRDPYGGVAPALKEVSMPDADGLFMVTTAVIIRDKSVRNMSCSINNTLLGQKKESVIFIPESFMPSVSPCA
chain 2: not shown
notes: extracellular domain; Immobilised in SPR; streptavidin-PE tetramer in staining; also called BTN2A1-BTN3A1 complex; BTN2A1-BTN3A1 heteromer; not shown: acid zipper (AZ)-His6; basic zipper (BZ)-biotin ligase tag
- median fluorescence of PE [6]: 52

B6: BTN3A1 Arg44-Ala on transfected NIH-3T3 cells (ligand)
chain: not shown
notes: whole, on cells; Position counts the mature protein
- binding result [8]: no binding

B7: BTN3A1 Glu106-Ala on transfected NIH-3T3 cells (ligand)
chain: not shown
notes: as for B6
- binding result [8]: no binding

Binder: B12
- median fluorescence of PE [6]: 28

Other lines, results leading:

- binding result [1]: no binding (tested: 1,590 µM)
- Kd [2]: 1100 µM
B1: monomeric BTN3A1 IgV domain (ligand)
chain: not shown
notes: domain: IgV; not shown: C-terminal biotin ligase (AviTag) and His tags

- binding result [8]: no binding
B8: BTN3A1 Tyr98-Ala on transfected NIH-3T3 cells (ligand)
chain: not shown
notes: as for B6

- binding result [8]: no binding
B9: BTN3A1 Tyr105-Ala on transfected NIH-3T3 cells (ligand)
chain: not shown
notes: as for B6

- binding result [8]: no binding
B10: BTN3A1 Tyr98-Phe on transfected NIH-3T3 cells (ligand)
chain: not shown
notes: as for B6

- binding result [8]: no binding
B11: BTN3A1 Leu96-Ala on transfected NIH-3T3 cells (ligand)
chain: not shown
notes: as for B6

Reference: patent publication US20250161356A1 (UNIVERSITY OF MELBOURNE, published 2025)
